Data set [1] has as its target T1, AppC, subunit of Escherichia coli cytochrome bd-II oxidase (E. coli, UniProt P26459 1-514).
T1 construct: AppC, cytochrome bd-II oxidase subunit, E. coli; predicted molecular mass 58.1 kDa; gene amplified from genomic DNA of strain BW25113; also called AppChis
T1 sequence: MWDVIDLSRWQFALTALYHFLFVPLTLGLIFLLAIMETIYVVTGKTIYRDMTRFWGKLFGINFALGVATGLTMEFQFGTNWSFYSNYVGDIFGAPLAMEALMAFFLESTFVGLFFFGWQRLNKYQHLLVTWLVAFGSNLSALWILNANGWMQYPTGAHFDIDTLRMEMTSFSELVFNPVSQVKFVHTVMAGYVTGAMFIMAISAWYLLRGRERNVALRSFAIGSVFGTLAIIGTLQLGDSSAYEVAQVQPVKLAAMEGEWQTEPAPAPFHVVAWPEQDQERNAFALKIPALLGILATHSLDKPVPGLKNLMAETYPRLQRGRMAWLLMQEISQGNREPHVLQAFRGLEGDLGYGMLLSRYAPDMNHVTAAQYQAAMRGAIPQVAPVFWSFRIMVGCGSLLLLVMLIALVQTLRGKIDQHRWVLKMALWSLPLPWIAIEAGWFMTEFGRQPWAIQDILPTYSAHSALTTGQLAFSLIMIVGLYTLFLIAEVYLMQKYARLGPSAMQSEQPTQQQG
As to the kind of experiment: cryo-EM structure; bd-II in amphipol A8-35, 5.6 mg/mL, incubated with aurachin D; 20 mM MOPS, 20 mM NaCl, pH 7.0; C2 symmetry imposed; 3.0 Å. The conditions noted are these: both partners purified.

Data set [2] concerns the molecule itself. The description is as above.

B1: AppB, subunit of Escherichia coli cytochrome bd-II oxidase (natural protein)
chain: not shown
notes: AppB, cytochrome bd-II oxidase subunit, E. coli; predicted molecular mass 42.4 kDa; gene amplified from genomic DNA of strain BW25113
On to B1, for which, in data set [1], the binding result was “binds”.

B2: AppX, single helix subunit of Escherichia coli cytochrome bd-II oxidase (natural protein, E. coli)
chain: MWYLLWFVGILLMCSLSTLVLVWLDPRLKS
notes: AppX, cytochrome bd-II oxidase subunit, E. coli; length of 30 amino acid residues; predicted molecular mass 3.6 kDa; gene amplified from genomic DNA of strain BW25113
Take B2: the binding result in data set [2] and in data set [1] was “binds” in each case.
